According to patent publication US20120100160A1:

Molecular target: murine LFA-1 (on TK1/TK-1 cells or primary murine splenocytes) (murine) (UniProt P24063)
Assay: cell-based or functional assay

UniProt P24063, sequence (P24063 24-1162, chain 1 of 2): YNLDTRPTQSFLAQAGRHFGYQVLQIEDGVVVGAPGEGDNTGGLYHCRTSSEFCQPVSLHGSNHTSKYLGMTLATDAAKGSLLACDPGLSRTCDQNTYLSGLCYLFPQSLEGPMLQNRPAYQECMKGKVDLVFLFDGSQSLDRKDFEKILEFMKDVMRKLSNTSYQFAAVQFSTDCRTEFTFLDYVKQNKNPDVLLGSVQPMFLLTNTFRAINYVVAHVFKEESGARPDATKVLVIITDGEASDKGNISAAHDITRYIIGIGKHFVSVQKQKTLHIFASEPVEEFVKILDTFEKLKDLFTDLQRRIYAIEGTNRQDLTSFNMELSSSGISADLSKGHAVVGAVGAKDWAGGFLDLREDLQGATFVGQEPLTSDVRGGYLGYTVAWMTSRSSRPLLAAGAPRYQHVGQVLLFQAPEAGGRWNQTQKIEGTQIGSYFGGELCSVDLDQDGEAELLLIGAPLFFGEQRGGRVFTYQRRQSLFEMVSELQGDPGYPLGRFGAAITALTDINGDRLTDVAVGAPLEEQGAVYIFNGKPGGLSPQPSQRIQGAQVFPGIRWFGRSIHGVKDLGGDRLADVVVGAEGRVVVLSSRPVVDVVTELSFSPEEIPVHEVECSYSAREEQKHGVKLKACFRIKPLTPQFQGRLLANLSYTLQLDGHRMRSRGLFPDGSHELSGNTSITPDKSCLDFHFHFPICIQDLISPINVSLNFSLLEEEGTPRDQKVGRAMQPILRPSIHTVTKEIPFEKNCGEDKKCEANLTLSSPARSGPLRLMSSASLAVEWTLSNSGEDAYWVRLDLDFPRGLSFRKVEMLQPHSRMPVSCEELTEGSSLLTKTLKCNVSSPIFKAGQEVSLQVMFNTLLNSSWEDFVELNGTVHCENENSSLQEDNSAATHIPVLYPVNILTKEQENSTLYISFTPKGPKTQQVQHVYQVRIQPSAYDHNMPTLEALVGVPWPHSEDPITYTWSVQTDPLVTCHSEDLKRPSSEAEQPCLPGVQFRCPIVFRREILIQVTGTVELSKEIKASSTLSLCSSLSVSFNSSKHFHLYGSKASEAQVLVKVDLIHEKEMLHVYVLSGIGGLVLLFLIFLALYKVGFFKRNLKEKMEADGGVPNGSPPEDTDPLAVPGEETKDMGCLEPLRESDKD
UniProt P24063, sequence (P11835 24-771, chain 2 of 2, further chain): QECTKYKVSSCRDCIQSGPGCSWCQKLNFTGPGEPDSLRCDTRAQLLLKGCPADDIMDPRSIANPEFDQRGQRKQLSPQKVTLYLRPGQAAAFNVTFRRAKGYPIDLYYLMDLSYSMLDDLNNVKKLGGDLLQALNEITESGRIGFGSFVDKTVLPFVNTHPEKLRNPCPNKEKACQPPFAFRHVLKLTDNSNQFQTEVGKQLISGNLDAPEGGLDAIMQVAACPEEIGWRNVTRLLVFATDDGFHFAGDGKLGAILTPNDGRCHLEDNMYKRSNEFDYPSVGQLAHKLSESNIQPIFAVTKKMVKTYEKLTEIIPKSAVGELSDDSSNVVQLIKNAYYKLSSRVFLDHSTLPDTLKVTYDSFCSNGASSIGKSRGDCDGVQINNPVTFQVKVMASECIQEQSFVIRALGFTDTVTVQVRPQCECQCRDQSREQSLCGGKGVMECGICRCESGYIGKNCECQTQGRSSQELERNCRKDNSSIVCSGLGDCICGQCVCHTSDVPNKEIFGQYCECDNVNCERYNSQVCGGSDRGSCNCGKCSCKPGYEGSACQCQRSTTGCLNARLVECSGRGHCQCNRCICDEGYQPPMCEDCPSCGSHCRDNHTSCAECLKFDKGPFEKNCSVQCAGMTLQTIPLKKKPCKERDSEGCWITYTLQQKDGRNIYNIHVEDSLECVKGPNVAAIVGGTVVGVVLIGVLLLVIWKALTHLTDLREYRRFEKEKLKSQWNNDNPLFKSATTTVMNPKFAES

CD45 knockdown in TK-1 cells: subpopulation of CD45-low cells at the 6:1 ratio of siRNA to fusion protein: 14%
Substance: multimerized ICAM-1-protamine fusion protein (80 pmoles fusion protein with 10 pmoles anti-Fc Fab′2)
